The record followed here is PMC7763228, “Structural Studies of HNA Substrate Specificity in Mutants of an Archaeal DNA Polymerase Obtained by Directed Evolution”.

Series [1] addresses T1, TgoT_6G12 DNA polymerase (Thermococcus gorgonarius, UniProt P56689 1-773, V93Q;D141A;E143A;A485L;V589A;E609K;I610M;K659Q;E664Q;Q665P;R668K;D669Q;K671H;K67 …).
T1 sequence: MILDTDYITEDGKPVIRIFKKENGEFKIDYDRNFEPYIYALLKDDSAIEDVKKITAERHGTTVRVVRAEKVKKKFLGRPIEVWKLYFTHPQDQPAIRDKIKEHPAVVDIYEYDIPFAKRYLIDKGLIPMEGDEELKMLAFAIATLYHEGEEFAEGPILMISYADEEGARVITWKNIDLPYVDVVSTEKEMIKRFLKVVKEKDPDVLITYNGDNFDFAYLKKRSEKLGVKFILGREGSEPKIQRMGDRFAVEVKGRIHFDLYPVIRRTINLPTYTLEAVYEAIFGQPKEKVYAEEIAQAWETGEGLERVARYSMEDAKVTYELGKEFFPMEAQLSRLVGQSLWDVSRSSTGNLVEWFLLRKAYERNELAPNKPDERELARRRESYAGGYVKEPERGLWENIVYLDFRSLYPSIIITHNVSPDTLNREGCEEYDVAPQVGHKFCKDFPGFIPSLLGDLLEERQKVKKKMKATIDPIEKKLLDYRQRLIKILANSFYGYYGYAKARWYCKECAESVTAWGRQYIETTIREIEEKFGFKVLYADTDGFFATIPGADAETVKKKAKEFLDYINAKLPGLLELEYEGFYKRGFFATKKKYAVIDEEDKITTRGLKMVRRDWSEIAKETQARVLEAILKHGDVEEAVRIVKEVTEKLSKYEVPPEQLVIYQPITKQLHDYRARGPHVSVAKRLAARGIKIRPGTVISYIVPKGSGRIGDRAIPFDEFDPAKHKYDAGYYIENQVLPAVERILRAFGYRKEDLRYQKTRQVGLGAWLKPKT
The series is described as follows: X-ray crystallography; ternary complex with incoming ddTTP, 2 mM MnCl2, 3.15 A; 5% PEG 20K, 0.1 M MES-NaOH pH 6.0; Co-crystallization: protein 5 mg/mL with 1.5x primer-template, 5 mM ddTTP or hCTP/ddCTP, 2 mM MnCl2 (not stated for the 6G12 binary DNA complex); incubated at 4 C (binary) or room temperature; 5-10% PEG 20K, 0.1 M MES-NaOH pH 6.0-6.5; protein buffer 50 mM Tris-HCl pH 7.5, 200 mM NaCl, 0.1 mM EDTA, 1 mM …. The settings on record: protein: recombinant, template 5' overhang 8 nt.

Series [2] addresses T1, TgoT_6G12 DNA polymerase. The series is described as follows: X-ray crystallography; binary complex, 2.8 A; ddTTP added; 10% PEG 20K, 0.1 M MES-NaOH pH 6.5; Co-crystallization: protein 5 mg/mL with 1.5x primer-template, 5 mM ddTTP or hCTP/ddCTP, 2 mM MnCl2 (not stated for the 6G12 binary DNA complex); incubated at 4 C (binary) or room temperature; 5-10% PEG 20K, 0.1 M MES-NaOH pH 6.0-6.5; protein buffer 50 mM Tris-HCl pH 7.5, 200 mM NaCl, 0.1 mM EDTA, 1 mM DTT. The settings on record: protein: recombinant, template 5' overhang 8 nt.

B1: P5-T13' primer-template (dsDNA)
DNA 1: CGCAT
DNA 2: AACGGCAAATGCG
As for B1, the binding result in the series with TgoT_6G12 DNA polymerase [1] is reported as “binds”.

B2: P5-T13 primer-template (dsDNA)
DNA 1: CGCAT
DNA 2: AACGGCTAATGCG
In the case of B2, the binding result in the series with TgoT_6G12 DNA polymerase [2] is given as “binds”.
